According to publication PMC2681181:

Biological target: Integrin β1 (human (endogenous in MCF-7 and MCF-10A)) (UniProt P05556)
Assay: co-IP

UniProt P05556, sequence (P05556 21-798): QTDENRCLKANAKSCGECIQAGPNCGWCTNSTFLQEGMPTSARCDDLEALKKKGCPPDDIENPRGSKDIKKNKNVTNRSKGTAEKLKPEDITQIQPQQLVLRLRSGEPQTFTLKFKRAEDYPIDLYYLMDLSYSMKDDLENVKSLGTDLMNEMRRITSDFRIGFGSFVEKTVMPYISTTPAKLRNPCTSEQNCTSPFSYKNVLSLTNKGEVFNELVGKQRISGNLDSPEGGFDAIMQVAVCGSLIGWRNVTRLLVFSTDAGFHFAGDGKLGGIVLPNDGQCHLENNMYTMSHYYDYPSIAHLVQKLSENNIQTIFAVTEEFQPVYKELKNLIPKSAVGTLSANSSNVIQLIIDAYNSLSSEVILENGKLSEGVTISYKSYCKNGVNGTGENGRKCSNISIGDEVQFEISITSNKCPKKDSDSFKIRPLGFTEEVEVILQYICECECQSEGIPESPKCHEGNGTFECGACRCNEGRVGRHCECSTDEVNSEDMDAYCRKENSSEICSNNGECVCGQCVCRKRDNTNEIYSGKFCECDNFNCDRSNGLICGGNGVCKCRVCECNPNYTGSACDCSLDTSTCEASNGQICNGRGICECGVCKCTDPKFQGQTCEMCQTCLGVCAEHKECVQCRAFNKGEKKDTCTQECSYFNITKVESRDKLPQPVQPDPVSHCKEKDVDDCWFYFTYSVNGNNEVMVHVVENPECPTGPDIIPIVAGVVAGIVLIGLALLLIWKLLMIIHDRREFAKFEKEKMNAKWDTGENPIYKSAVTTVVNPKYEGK

type II collagen (from UniProt P02459 182-1241) (ligand)
percent decrease of co-precipitated CII in the combined CII/LAM treatment: 27.1%

laminin (from UniProt P02469 22-1786) (complex)
percent decrease of co-precipitated LAM in the combined CII/LAM treatment: 27.8%

Integrin α2 (from UniProt P17301 30-1181) (receptor)
percent increase of co-precipitated INTα2 after combined CII/LAM treatment: 53.8%
